According to patent US20240376151A1, “STAPLED PEPTIDES AND METHODS THEREOF” (FOG PHARMACEUTICALS, INC., priority 2022, published 2024):
Ends that are not written are not given here.

Target: T1, beta-catenin (Homo sapiens, UniProt P35222)
T1 construct: made in house; host or cells: E. coli BL21 (DE3) pLysS
T1 sequence (P35222 134-665): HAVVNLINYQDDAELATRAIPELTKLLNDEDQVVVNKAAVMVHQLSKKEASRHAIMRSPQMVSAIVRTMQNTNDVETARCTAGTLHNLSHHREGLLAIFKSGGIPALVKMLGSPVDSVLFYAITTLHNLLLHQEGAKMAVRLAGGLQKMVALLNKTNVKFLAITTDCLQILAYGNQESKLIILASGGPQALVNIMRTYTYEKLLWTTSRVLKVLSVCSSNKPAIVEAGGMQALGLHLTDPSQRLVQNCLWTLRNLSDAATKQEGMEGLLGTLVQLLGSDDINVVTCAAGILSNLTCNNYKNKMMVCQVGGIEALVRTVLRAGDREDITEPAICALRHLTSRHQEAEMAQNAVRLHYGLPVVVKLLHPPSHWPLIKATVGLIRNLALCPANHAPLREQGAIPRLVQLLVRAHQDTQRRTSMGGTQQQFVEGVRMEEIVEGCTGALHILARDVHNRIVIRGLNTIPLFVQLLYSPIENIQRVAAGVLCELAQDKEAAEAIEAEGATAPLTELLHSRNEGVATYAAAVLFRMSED
Experiment: Phage Library Screening with NGS, beta-catenin
Format: binding
Conditions: for Target Concentration 10 (phage screen NGS readout): beta-catenin target concentration 10; for Target Concentration 10 (phage screen NGS readout) / Target Concentration 30 (phage screen NGS readout) / Target Concentration 100 (phage screen NGS readout) / Target Concentration 300 (phage screen NGS readout): no competitor; for Target Concentration 30 (phage screen NGS readout): beta-catenin target concentration 30; for Target Concentration 100 (phage screen NGS readout): beta-catenin target concentration 100; for Target Concentration 300 (phage screen NGS readout): beta-catenin target concentration 300; for Target Concentration 1000 (phage screen NGS readout): beta-catenin target concentration 1000

DPADNECILAAHICTLA
Target Concentration BLANK (phage screen NGS readout) (first column): 0 | Target Concentration BLANK (phage screen NGS readout) (fourth column): 0 | Target Concentration BLANK (phage screen NGS readout) (second column): 0 | Target Concentration BLANK (phage screen NGS readout) (third column): 0 | Target Concentration 10 (phage screen NGS readout): 0 | Target Concentration 30 (phage screen NGS readout): 5 | Target Concentration 100 (phage screen NGS readout): 24 | Target Concentration 300 (phage screen NGS readout): 36 | Target Concentration 1000 (phage screen NGS readout) (first 1000 column): 45 | Target Concentration 1000 (phage screen NGS readout) (second 1000 column): 30

DPADTECILAAHFCHYF
Target Concentration BLANK (phage screen NGS readout) (first column): 0 | Target Concentration BLANK (phage screen NGS readout) (fourth column): 0 | Target Concentration BLANK (phage screen NGS readout) (second column): 2 | Target Concentration BLANK (phage screen NGS readout) (third column): 0 | Target Concentration 10 (phage screen NGS readout): 0 | Target Concentration 30 (phage screen NGS readout): 1 | Target Concentration 100 (phage screen NGS readout): 39 | Target Concentration 300 (phage screen NGS readout): 81 | Target Concentration 1000 (phage screen NGS readout) (first 1000 column): 78 | Target Concentration 1000 (phage screen NGS readout) (second 1000 column): 49

DPADWICEHAALTCQEF
Target Concentration BLANK (phage screen NGS readout) (first column): 0 | Target Concentration BLANK (phage screen NGS readout) (fourth column): 0 | Target Concentration BLANK (phage screen NGS readout) (second column): 1 | Target Concentration BLANK (phage screen NGS readout) (third column): 0 | Target Concentration 10 (phage screen NGS readout): 0 | Target Concentration 30 (phage screen NGS readout): 2 | Target Concentration 100 (phage screen NGS readout): 6 | Target Concentration 300 (phage screen NGS readout): 15 | Target Concentration 1000 (phage screen NGS readout) (first 1000 column): 12 | Target Concentration 1000 (phage screen NGS readout) (second 1000 column): 14

DPADYDCILAAHICTNI
Target Concentration BLANK (phage screen NGS readout) (first column): 0 | Target Concentration BLANK (phage screen NGS readout) (fourth column): 0 | Target Concentration BLANK (phage screen NGS readout) (second column): 0 | Target Concentration BLANK (phage screen NGS readout) (third column): 0 | Target Concentration 10 (phage screen NGS readout): 2 | Target Concentration 30 (phage screen NGS readout): 18 | Target Concentration 100 (phage screen NGS readout): 70 | Target Concentration 300 (phage screen NGS readout): 147 | Target Concentration 1000 (phage screen NGS readout) (first 1000 column): 118 | Target Concentration 1000 (phage screen NGS readout) (second 1000 column): 122

DPADYECVIAAQVCQHF (not fully specified; cysteine pairing not given here)
Target Concentration BLANK (phage screen NGS readout) (first column): 0 | Target Concentration BLANK (phage screen NGS readout) (fourth column): 0 | Target Concentration BLANK (phage screen NGS readout) (second column): 4 | Target Concentration BLANK (phage screen NGS readout) (third column): 0 | Target Concentration 10 (phage screen NGS readout): 0 | Target Concentration 30 (phage screen NGS readout): 1 | Target Concentration 100 (phage screen NGS readout): 11 | Target Concentration 300 (phage screen NGS readout): 18 | Target Concentration 1000 (phage screen NGS readout) (first 1000 column): 19 | Target Concentration 1000 (phage screen NGS readout) (second 1000 column): 14

DPAEADCMMAAHICSNI
Target Concentration BLANK (phage screen NGS readout) (first column): 0 | Target Concentration BLANK (phage screen NGS readout) (fourth column): 0 | Target Concentration BLANK (phage screen NGS readout) (second column): 0 | Target Concentration BLANK (phage screen NGS readout) (third column): 0 | Target Concentration 10 (phage screen NGS readout): 0 | Target Concentration 30 (phage screen NGS readout): 0 | Target Concentration 100 (phage screen NGS readout): 21 | Target Concentration 300 (phage screen NGS readout): 15 | Target Concentration 1000 (phage screen NGS readout) (first 1000 column): 46 | Target Concentration 1000 (phage screen NGS readout) (second 1000 column): 22

DPAEAECILAAHICNIS
Target Concentration BLANK (phage screen NGS readout) (first column): 0 | Target Concentration BLANK (phage screen NGS readout) (fourth column): 0 | Target Concentration BLANK (phage screen NGS readout) (second column): 0 | Target Concentration BLANK (phage screen NGS readout) (third column): 0 | Target Concentration 10 (phage screen NGS readout): 10 | Target Concentration 30 (phage screen NGS readout): 0 | Target Concentration 100 (phage screen NGS readout): 37 | Target Concentration 300 (phage screen NGS readout): 39 | Target Concentration 1000 (phage screen NGS readout) (first 1000 column): 51 | Target Concentration 1000 (phage screen NGS readout) (second 1000 column): 52

DPAEAICILAAHECWWD
Target Concentration BLANK (phage screen NGS readout) (first column): 0 | Target Concentration BLANK (phage screen NGS readout) (fourth column): 0 | Target Concentration BLANK (phage screen NGS readout) (second column): 0 | Target Concentration BLANK (phage screen NGS readout) (third column): 0 | Target Concentration 10 (phage screen NGS readout): 19 | Target Concentration 30 (phage screen NGS readout): 38 | Target Concentration 100 (phage screen NGS readout): 139 | Target Concentration 300 (phage screen NGS readout): 235 | Target Concentration 1000 (phage screen NGS readout) (first 1000 column): 322 | Target Concentration 1000 (phage screen NGS readout) (second 1000 column): 228

DPAEFYCEMAAVHCELL
Target Concentration BLANK (phage screen NGS readout) (first column): 0 | Target Concentration BLANK (phage screen NGS readout) (fourth column): 0 | Target Concentration BLANK (phage screen NGS readout) (second column): 0 | Target Concentration BLANK (phage screen NGS readout) (third column): 0 | Target Concentration 10 (phage screen NGS readout): 2 | Target Concentration 30 (phage screen NGS readout): 1 | Target Concentration 100 (phage screen NGS readout): 17 | Target Concentration 300 (phage screen NGS readout): 99 | Target Concentration 1000 (phage screen NGS readout) (first 1000 column): 61 | Target Concentration 1000 (phage screen NGS readout) (second 1000 column): 107

DPAEHDCMLAAHFCRHF
Target Concentration BLANK (phage screen NGS readout) (first column): 0 | Target Concentration BLANK (phage screen NGS readout) (fourth column): 0 | Target Concentration BLANK (phage screen NGS readout) (second column): 2 | Target Concentration BLANK (phage screen NGS readout) (third column): 0 | Target Concentration 10 (phage screen NGS readout): 8 | Target Concentration 30 (phage screen NGS readout): 55 | Target Concentration 100 (phage screen NGS readout): 242 | Target Concentration 300 (phage screen NGS readout): 194 | Target Concentration 1000 (phage screen NGS readout) (first 1000 column): 337 | Target Concentration 1000 (phage screen NGS readout) (second 1000 column): 260

DPAEIICYEAAFLCQYQ
Target Concentration BLANK (phage screen NGS readout) (first column): 0 | Target Concentration BLANK (phage screen NGS readout) (fourth column): 0 | Target Concentration BLANK (phage screen NGS readout) (second column): 0 | Target Concentration BLANK (phage screen NGS readout) (third column): 0 | Target Concentration 10 (phage screen NGS readout): 0 | Target Concentration 30 (phage screen NGS readout): 0 | Target Concentration 100 (phage screen NGS readout): 0 | Target Concentration 300 (phage screen NGS readout): 15 | Target Concentration 1000 (phage screen NGS readout) (first 1000 column): 38 | Target Concentration 1000 (phage screen NGS readout) (second 1000 column): 26

DPAELACEWAAIHCELV
Target Concentration BLANK (phage screen NGS readout) (first column): 0 | Target Concentration BLANK (phage screen NGS readout) (fourth column): 0 | Target Concentration BLANK (phage screen NGS readout) (second column): 0 | Target Concentration BLANK (phage screen NGS readout) (third column): 0 | Target Concentration 10 (phage screen NGS readout): 0 | Target Concentration 30 (phage screen NGS readout): 2 | Target Concentration 100 (phage screen NGS readout): 41 | Target Concentration 300 (phage screen NGS readout): 94 | Target Concentration 1000 (phage screen NGS readout) (first 1000 column): 69 | Target Concentration 1000 (phage screen NGS readout) (second 1000 column): 75

DPAENTCSWAAEHCALV
Target Concentration BLANK (phage screen NGS readout) (first column): 0 | Target Concentration BLANK (phage screen NGS readout) (fourth column): 0 | Target Concentration BLANK (phage screen NGS readout) (second column): 0 | Target Concentration BLANK (phage screen NGS readout) (third column): 0 | Target Concentration 10 (phage screen NGS readout): 0 | Target Concentration 30 (phage screen NGS readout): 0 | Target Concentration 100 (phage screen NGS readout): 0 | Target Concentration 300 (phage screen NGS readout): 26 | Target Concentration 1000 (phage screen NGS readout) (first 1000 column): 28 | Target Concentration 1000 (phage screen NGS readout) (second 1000 column): 31

DPAESDCILAAYICYVE
Target Concentration BLANK (phage screen NGS readout) (first column): 0 | Target Concentration BLANK (phage screen NGS readout) (fourth column): 0 | Target Concentration BLANK (phage screen NGS readout) (second column): 2 | Target Concentration BLANK (phage screen NGS readout) (third column): 0 | Target Concentration 10 (phage screen NGS readout): 0 | Target Concentration 30 (phage screen NGS readout): 1 | Target Concentration 100 (phage screen NGS readout): 22 | Target Concentration 300 (phage screen NGS readout): 51 | Target Concentration 1000 (phage screen NGS readout) (first 1000 column): 69 | Target Concentration 1000 (phage screen NGS readout) (second 1000 column): 40

DPAEVDCIMAAHICVWD
Target Concentration BLANK (phage screen NGS readout) (first column): 0 | Target Concentration BLANK (phage screen NGS readout) (fourth column): 0 | Target Concentration BLANK (phage screen NGS readout) (second column): 0 | Target Concentration BLANK (phage screen NGS readout) (third column): 0 | Target Concentration 10 (phage screen NGS readout): 0 | Target Concentration 30 (phage screen NGS readout): 0 | Target Concentration 100 (phage screen NGS readout): 31 | Target Concentration 300 (phage screen NGS readout): 42 | Target Concentration 1000 (phage screen NGS readout) (first 1000 column): 40 | Target Concentration 1000 (phage screen NGS readout) (second 1000 column): 51
